The text below walks through data of CN105131113A (ATTOBIO BIOPHARMACEUTICAL SUZHOU CO LTD, dated 2015).

In one experiment the target is T1, 细胞内源的HPV16E7蛋白 (HPV16, UniProt P03129 2-98).
T1 construct: Endogenous, intracellular HPV16 E7 in fixed and permeabilised CaSki cells (ICC) or in formalin-fixed paraffin sections of cervical tissue (IHC); as printed it has no initial Met; also called 宫颈癌细胞株CaSki表达的HPV16E7蛋白; 宫颈癌组织中的HPV16E7蛋白
T1 sequence: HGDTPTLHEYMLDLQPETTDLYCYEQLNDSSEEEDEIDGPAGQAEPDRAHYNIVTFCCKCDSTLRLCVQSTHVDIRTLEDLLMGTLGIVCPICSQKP
Kind of experiment: immunocytochemistry on fixed, permeabilised CaSki cells (C-33A as negative control).

A further experiment concerns the target T2, 重组蛋白His-HPV16E7 (HPV16, UniProt P03129 2-98).
T2 construct: also called His-HPV16E7融合蛋白; His-HPV16E7重组蛋白; not shown: His tag
T2 sequence: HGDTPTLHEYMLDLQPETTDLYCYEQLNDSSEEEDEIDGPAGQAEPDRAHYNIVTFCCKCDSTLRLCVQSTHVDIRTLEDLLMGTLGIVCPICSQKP
Nature of the experiment: indirect ELISA, antigen coated at 0.5μg/ml, antibody 0.1μg/ml. (In general: An ELISA detects its analyte on a solid surface through an enzyme-linked reagent.)

For another experiment, the target named is T3, His-HPV18E7融合蛋白 (HPV18, UniProt P06788 1-105).
T3 construct: not shown: His tag
T3 chain: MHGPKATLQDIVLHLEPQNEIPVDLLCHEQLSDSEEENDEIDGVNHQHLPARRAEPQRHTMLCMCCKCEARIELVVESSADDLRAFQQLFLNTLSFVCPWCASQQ
Described as above.

The target in a further experiment is T4, 多肽HPV16E7-5 (HPV16).
T4 construct: Peptide of HPV16 E7
T4 peptide: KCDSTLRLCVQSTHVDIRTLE
Nature of the experiment: ELISA, peptide coated at 2μg/ml.

A further experiment deals with T5, 多肽HPV16E7-27 (HPV16).
T5 construct: Peptide of HPV16 E7
T5 peptide: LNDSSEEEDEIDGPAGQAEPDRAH
Nature of the experiment: ELISA, peptide coated at 2μg/ml.

In another experiment the target is T6, 多肽His-Vac (HPV16).
T6 peptide: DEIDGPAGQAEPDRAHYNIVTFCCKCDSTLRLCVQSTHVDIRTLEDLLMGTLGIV
Kind of experiment: ELISA, peptide coated at 2μg/ml.

For the next experiment, the target named is T7, 多肽HPV16E7-1 (HPV16).
T7 construct: Peptide of HPV16 E7
T7 peptide: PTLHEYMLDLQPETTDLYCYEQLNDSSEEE
Nature of the experiment: ELISA, peptide coated at 2μg/ml.

B1: 兔源单克隆抗体RAB-034 (antibody, V domains shown)
VH: QSLEESGGRLVTPGTPLTLTCTVSGIDLSSYAMGWVRQAPGEGLDWIGSIGSSGRTYYANWAKGRFTISKTSSTTVDLKMTSLTTEDTATYFCARGVVNRSDIWGPGTLVTVSS
VL: DPMLTQTASSVSAAVGGTVTISCQSSQSVYDNNWLGWYQQKPGQPPKLLIYGASNLESGVPSRFKGSGSGTQFTLTISDVQCDDAATYYCAGGYSGNRYVFGGGTEVVVK
notes: also called 抗HPV16E7兔单抗RAB-034
Take B1: the binding result in the experiment with 细胞内源的HPV16E7蛋白 is on record as “binds”; with 重组蛋白His-HPV16E7, “binds”; with His-HPV18E7融合蛋白 it was “binds”; in the experiment with 多肽HPV16E7-5 it was “no binding (tested: 1μg/ml)”; with 多肽HPV16E7-27 it was “no binding (tested: 1μg/ml)”; with 多肽His-Vac, “no binding (tested: 1μg/ml)”. Besides, the binding result with 多肽HPV16E7-1 is given as “no binding (tested: 1μg/ml)”.
